The values that follow come from patent US20190382483A1 (published 2019).

The target in this assay is T1, Recombinant hSIRPg-His (Sino Biologicals, reference 11828-H08H) (human, UniProt Q9P1W8 29-360).
T1 chain: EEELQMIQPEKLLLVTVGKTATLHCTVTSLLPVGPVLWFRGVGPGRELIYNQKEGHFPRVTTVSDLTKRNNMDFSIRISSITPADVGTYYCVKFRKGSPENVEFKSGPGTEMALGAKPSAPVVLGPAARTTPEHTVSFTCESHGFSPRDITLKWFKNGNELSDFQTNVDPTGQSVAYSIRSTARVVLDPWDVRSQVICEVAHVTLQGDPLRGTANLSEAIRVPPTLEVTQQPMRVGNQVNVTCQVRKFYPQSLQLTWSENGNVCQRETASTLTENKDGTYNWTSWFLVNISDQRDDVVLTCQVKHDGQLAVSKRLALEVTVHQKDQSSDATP
The assay is described as follows: Blitz (BLI).

B1: SIRP29 (antibody, V domains shown)
VH: EVQLQQSGAELVKPGASVKLSCTASGFNIKDYYIHWVQQRTEQGLEWIGRIDPEDGETKYAPKFQDKATITADTSSNTAYLHLSSLTSEDTAVYYCARWGAYWGQGTLVTVSS
VL: QIVLTQSPAIMSASPGEKVTLTCSASSSVSSSYLYWYQQKPGSSPKLWIYSTSNLASGVPARFSGSGSGTSYSLTISSMEAEDAASYFCHQWSSYPRTFGAGTKLELK
For B1, the Kd worked out at 5.3 nM.

B2: Kwar23 (antibody, V domains shown)
VH: EVQLQQSGAELVKPGASVKLSCTASGFNIKDYYIHWVQQRTEQGLEWIGRIDPEDGETKYAPKFQDKATITADTSSNTAYLHLSSLTSEDTAVYYCARWGAYWGQGTLVTVSS
VL: QIVLTQSPAIMSASPGEKVTLTCSASSSVSSSYLYWYQQKPGSSPKLWIYSTSNLASGVPARFSGSGSGTSYSLTISSMEAEDAASYFCHQWSSYPRTFGAGTKLELK
For the molecule B2, the Kd stood at 2.14 nM.
